The target in the experiment is T1, Klotho ectodomain (Mus musculus, UniProt O35082).
T1 construct: The ectodomain of murine Klotho (A35 to K982) was purified from culture media; FLAG (C); made in house; host or cells: HEK293 (secreted into culture media)
T1 sequence (O35082 35-982): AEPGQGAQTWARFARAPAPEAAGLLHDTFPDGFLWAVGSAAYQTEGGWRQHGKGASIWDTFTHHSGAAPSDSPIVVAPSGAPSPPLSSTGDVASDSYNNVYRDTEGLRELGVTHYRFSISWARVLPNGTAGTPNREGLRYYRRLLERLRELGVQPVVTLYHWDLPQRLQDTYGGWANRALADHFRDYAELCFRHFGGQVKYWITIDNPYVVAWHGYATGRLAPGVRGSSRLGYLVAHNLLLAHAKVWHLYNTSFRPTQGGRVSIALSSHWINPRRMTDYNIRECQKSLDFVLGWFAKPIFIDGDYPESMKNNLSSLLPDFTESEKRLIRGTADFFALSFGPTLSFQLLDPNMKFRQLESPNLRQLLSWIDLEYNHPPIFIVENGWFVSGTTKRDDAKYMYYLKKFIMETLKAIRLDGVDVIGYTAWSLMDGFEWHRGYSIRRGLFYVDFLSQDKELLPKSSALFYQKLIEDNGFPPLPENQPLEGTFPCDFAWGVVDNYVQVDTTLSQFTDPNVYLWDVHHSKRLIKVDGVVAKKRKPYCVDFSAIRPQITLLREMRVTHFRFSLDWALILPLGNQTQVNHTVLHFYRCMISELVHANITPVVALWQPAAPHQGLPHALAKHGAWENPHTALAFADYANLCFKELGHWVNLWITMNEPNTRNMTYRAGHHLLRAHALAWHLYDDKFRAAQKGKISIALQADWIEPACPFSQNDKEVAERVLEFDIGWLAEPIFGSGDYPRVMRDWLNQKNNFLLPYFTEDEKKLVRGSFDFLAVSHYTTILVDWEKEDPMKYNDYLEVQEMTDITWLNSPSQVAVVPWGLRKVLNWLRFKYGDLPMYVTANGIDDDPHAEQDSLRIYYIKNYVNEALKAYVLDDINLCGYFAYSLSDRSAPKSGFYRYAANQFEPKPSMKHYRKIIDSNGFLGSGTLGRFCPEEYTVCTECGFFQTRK
Kind of experiment: SPR: Klotho ectodomain passed over immobilized FGF23. It is filed as binding, murine. The procedure: Surface plasmon resonance (SPR) spectroscopy experiments were performed on a Biacore 2000 instrument (Biacore AB), and FGF23-FGFR1c-Klotho interactions were studied at 25° C. in HBS-EP buffer (10 mM HEPES-NaOH, pH 7.4, 150 mM NaCl, 3 mM EDTA, 0.005% (v/v) polysorbate 20). Proteins were immobilized by amine coupling on flow channels of research grade CM5 chips (Biacore AB). Proteins were injected over a CM5 chip at a flow rate of 50 μl min^−1, and at the end of each protein injection (180 s), HBS-EP buffer (50 μl min^−1) was flowed over the chip to monitor dissociation for 180 s. The chip surface was then regenerated by injecting 50 μl of 2.0 M NaCl in 10 mM sodium acetate, pH 4.5. To control for nonspecific binding in experiments where Klotho ectodomain was immobilized on the chip, β-glucuronidase was coupled to the control flow channel of the chip (˜26-32 fmole/mm^2). […] The data were processed with BiaEvaluation software (Biacore AB). For each protein injection over a Klotho chip, the nonspecific responses from the β-glucuronidase control flow channel were subtracted from the responses recorded for the Klotho flow channel. Similarly, for each protein injection over a FGF chip, the nonspecific responses from the FHF1B control flow channel were subtracted from the responses recorded for the FGF flow channel. […]

B1: FGF23^28-251: human FGF23 (A28 to I251), bioactive full-length ligand expressed in E. coli (protein, listed as Homo sapiens)
chain: ASPLLGSSWGGLIHLYTATARNSYHLQIHKNGHVDGAPHQTIYSALMIRSEDAGFVVITGVMSRRYLCMDFRGNIFGSHYFDPENCRFQHQTLENGYDVYHSPQYHFLVSLGRAKRAFLPGMNPPPYSQFLSRRNEIPLIHFNTPIPRRHTRSAEDDSERDPLNVLKPRARMTPAPASCSQELPSAEDNSPMASDPLGVVRGGRVNTHAGGTGPEGCRPFAKFI
Regarding B1, the “binding of Klotho ectodomain to immobilized FGF23” value is “bound poorly”.

The record behind these values is patent publication US8889621B2, “Inhibiting binding of FGF23 to the binary FGFR-Klotho complex for the treatment of hypophosphatemia” (New York University, priority 2009, dated 2014).
